Laboratory results as given in patent publication US20090181057A1 (BOARD OF TRUSTEES OF THE UNIVERSITY OF ILLINOIS, published 2009).
Positions count from the first letter of the chain named. Names and notes keep the numbering of the source.

B1: recombinant wild type GPIb-IX expressed in CHO cells (1b9) (receptor)
chain 1: HPICEVSKVASHLEVNCDKRNLTALPPDLPKDTTILHLSENLLYTFSLATLMPYTRLTQLNLDRCELTKLQVDGTLPVLGTLDLSHNQLQSLPLLGQTLPALTVLDVSFNRLTSLPLGALRGLGELQELYLKGNELKTLPPGLLTPTPKLEKLSLANNNLTELPAGLLNGLENLDTLLLQENSLYTIPKGFFGSHLLPFAFLHGNPWLCNCEILYFRRWLQDNAENVYVWKQGVDVKAMTSNVASVQCDNSDKFPVYKYPGKGCPTLGDEGDTDLYDYYPEEDTEGDKVRATRTVVKFPTKAHTTPWGLFYSWSTASLDSQMPSSLHPTQESTKEQTTFPPRWTPNFTLHMESITFSKTPKSTTEPTPSPTTSEPVPEPAPNMTTLEPTPSPTTPEPTSEPAPSPTTPEPTPIPTIATSPTILVSATSLITPKSTFLTTTKPVSLLESTKKTIPELDQPPKLRGVLQGHLESSRNDPFLHPDFCCLLPLGFYVLGLFWLLFASVVLILLLSWVGHVKPQALDSGQGAALTTATQTTHLELQRGRQVTVPRAWLLFLRGSLPTFRSSLFLWVRPNGRVGPLVAGRRPSALSQGRGQDLLSTVSIRYSGHSL
chain 2: CPAPCSCAGTLVDCGRRGLTWASLPTAFPVDTTELVLTGNNLTALPPGLLDALPALRTAHLGANPWRCDCRLVPLRAWLAGRPERAPYRDLRCVAPPALRGRLLPYLAEDELRAACAPGPLCWGALAAQLALLGLGLLHALLLVLLLCRLRRLRARARARAAARLSLTDPLVAERAGTDES
chain 3: TKDCPSPCTCRALETMGLWVDCRGHGLTALPALPARTRHLLLANNSLQSVPPGAFDHLPQLQTLDVTQNPWHCDCSLTYLRLWLEDRTPEALLQVRCASPSLAAHGPLGRLTGYQLGSCGWQLQASWVRPGVLWDVALVAVAALGLALLAGLLCATTEALD
modifications: Ser166 phosphorylated in CHO cells, as the filing says; phosphoserine 609, as the filing calls it
notes: whole, on cells; On intact CHO cells in flow cytometry and adhesion; in Triton X-100 lysate in the co-immunoprecipitation; No GPV
B2: GPIb-IX with wild type GPIbβ and GPIX and GPIbα S609A, expressed in CHO cells (S609A) (receptor)
chain 1: B1 chain 1 with S609A
chain 2: B1 chain 2
chain 3: B1 chain 3
notes: whole, on cells; also called S609A mutant
B3: glycoprotein (GP) Ib-IX-V complex (GPIb-IX) of human platelets (receptor)
chain 1: B1 chain 1
chain 2: B1 chain 2
chain 3: B1 chain 3
chain 4: QPFPCPPACKCVFRDAAQCSGGDVARISALGLPTNLTHILLFGMGRGVLQSQSFSGMTVLQRLMISDSHISAVAPGTFSDLIKLKTLRLSRNKITHLPGALLDKMVLLEQLFLDHNALRGIDQNMFQKLVNLQELALNQNQLDFLPASLFTNLENLKLLDLSGNNLTHLPKGLLGAQAKLERLLLHSNRLVSLDSGLLNSLGALTELQFHRNHIRSIAPGAFDRLPNLSSLTLSRNHLAFLPSALFLHSHNLTLLTLFENPLAELPGVLFGEMGGLQELWLNRTQLRTLPAAAFRNLSRLRYLGVTLSPRLSALPQGAFQGLGELQVLALHSNGLTALPDGLLRGLGKLRQVSLRRNRLRALPRALFRNLSSLESVQLDHNQLETLPGDVFGALPRLTEVLLGHNSWRCDCGLGPFLGWLRQHLGLVGGEEPPRCAGPGAHAGLPLWALPGGDAECPGPRGPPPRPAADSSSEAPVHPALAPNSSEPWVWAQPVTTGKGQDHSPFWGFYFLLLAVQAMITVIIVFAMIKIGQLFRKLIRERALG
modifications: phosphoserine at Ser609 (the filing says Ser609 is constitutively phosphorylated in resting platelets)
notes: whole, on cells; Native complex of platelets from healthy donors; solubilised in platelet lysate in the 14-3-3 bead pull-down; also called glycoprotein Ib-IX; platelet VWF receptor

Tests used:
[1] = target: T1, von Willebrand factor (vWF), purified human (human, UniProt P04275 764-2813); experiment: flow cytometry of CHO cells with purified VWF and ristocetin, anti-VWF monoclonal antibody
T1 construct: Purified vWF in the flow cytometry and capillary adhesion assays; the vWF of the donor's plasma in the assays with platelet-rich plasma; also called purified vWF
Description: Flow Cytometric Analysis of VWF Binding to GPIb-IX-expressing Cells—CHO cells expressing wild type (1b9) and mutant GPIb-IX were grown to confluence to synchronize cell growth. The cells were detached using 0.5 mM EDTA in PBS, pH 7.4. Seventy-five percent of the original volume was then replated in Dulbecco's modified Eagle's medium (DMEM) growth media and cultured for 18 h. For VWF binding assays, cells were detached using 0.5 mM EDTA-PBS, pH 7.4, resuspended to a concentration of 2.25×10⁶ cells/ml and incubated in modified Tyrode's buffer (2.5 mM Hepes, 12.1 mM NaHCO₃, 2.36 mM KCl, 0.136 M NaCl, 1 mM CaCl₂, 1 mM MgCl₂, 0.1% D-glucose, 1% BSA, pH 7.4) for 30 min at 4° C. […] After washing once with Tyrode's buffer, cells were further incubated with 10 μg/ml FITC-labeled SZ-29 (a monoclonal antibody against vWF) in the dark at 22° C. for 30 min and then analyzed by flow cytometry. […]
The cells were then analyzed by flow cytometry without washing. […]
To determine the roles of the above described two phosphoserine residues in regulating ligand binding function of GPIb-IX, CHO cell lines bearing wild type and the mutants of GPIb-IX were incubated with purified VWF in the presence of ristocetin (a VWF modulator that induces VWF binding to GPIb-IX). Binding of VWF was determined by flow cytometry using an anti-VWF monoclonal antibody. […]

[2] = target: maltose-binding protein (MBP), conjugated to control beads (UniProt P0AEX9 27-392 = MBP); experiment: bead pull-down from platelet lysate, anti-GPIbα immunoblot
Description: 14-3-3 binding to GPIb-IX. Binding of GPIb-IX to 14-3-3-conjugated beads were performed as previously described (Du et al., J. Biol. Chem., 271:7362-7367 (1996)). Briefly, 14-3-3-conjugated Sepharose 4B beads and maltose-binding protein (MBP)-conjugated control beads were preincubated with various concentrations of synthetic peptides at 4° C. for 1 h, and then with platelet lysates for an additional 1 h. The beads were washed three times. Bound GPIb-IX was detected by Western blot with a monoclonal antibody against GPIbα, WM23.
To examine if the above peptides interfere with 14-3-3 interaction with GPIb-IX, platelet lysates were incubated with beads conjugated with recombinant 14-3-3-maltose-binding protein (MBP) fusion protein in the absence or presence of MPαC or control peptides. GPIb-IX from platelet lysates specifically bound to 14-3-3 beads but not the control MBP-conjugated beads (FIG. 1B).

| Binder | binding result [1] | binding result [2] |
| --- | --- | --- |
| B1 | binds | – |
| B2 | binds | – |
| B3 | – | no binding |
